Publication PMC8100066, “PIM-induced phosphorylation of Notch3 promotes breast cancer tumorigenicity in a CSL-independent fashion” (The Journal of Biological Chemistry, 2021)

Molecular target: T1, mouse CSL (amino acid residues 53-474), conserved and structurally ordered core domain (mouse, UniProt P31266 53-474)
T1 construct: The SMT3 tag was cut off with ubiquitin-like protease and separated by ion exchange; also called RBPJ; mCSL
Assay: ITC; CSL in the cell at 10 μM, RAM peptides in the syringe at 100 μM; 20 °C; 50 mM sodium phosphate, 150 mM sodium chloride; triplicate, 20 injections of 14 μl
Settings: both partners purified

T1 sequence (P31266 53-474): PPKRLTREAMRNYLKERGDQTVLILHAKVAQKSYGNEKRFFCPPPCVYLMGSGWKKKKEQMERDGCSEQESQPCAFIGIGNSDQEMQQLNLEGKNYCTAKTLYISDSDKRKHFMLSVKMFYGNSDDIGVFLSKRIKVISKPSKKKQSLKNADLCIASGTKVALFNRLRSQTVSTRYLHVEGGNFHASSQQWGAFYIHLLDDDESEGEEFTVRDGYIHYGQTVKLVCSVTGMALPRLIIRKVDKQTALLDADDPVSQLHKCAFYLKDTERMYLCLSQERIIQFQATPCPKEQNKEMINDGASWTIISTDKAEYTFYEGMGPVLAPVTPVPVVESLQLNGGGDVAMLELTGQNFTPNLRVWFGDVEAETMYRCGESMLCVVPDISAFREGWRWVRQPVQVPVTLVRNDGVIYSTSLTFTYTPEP

Kd: 22 nM
B1: human NOTCH1 RAM peptide (residues 1754-1781) (peptide)
peptide: VLLSRKRRRQHGQLWFPEGFKVSEASKK
notes: NOTCH1, human, RAM domain, residues 1754-1781; also called N1RAM; source: synthetic peptide (Peptide2.0, 95% purity)
